The record followed here is patent US20090264344A1 (University of California, published 2009).

As a reminder, the Kd is the concentration at which binding is half-saturated.

Experiment [1] concerns the target T1, Recombinant HIV-1 BaL gp120 (HIV-1 (BaL)).
T1 construct: domain: gp120; also called gp120(BaL); gp120 BaL
Description: SPR (Biacore 2000), gp120 BaL immobilized on chip, peptide in flow, 1:1 fit. Background: SPR reads the build-up and loss of mass on a sensor chip optically.

In experiment [2] the target is T2, Recombinant human soluble CD4 (full-length 45 kDa glycosylated ectodomain) (human, UniProt P01730 26-396).
T2 construct: extracellular domain; Immobilized on a CM5 chip by amine coupling
Description: SPR (Biacore 2000), soluble CD4 immobilized on CM5 chip, peptide in flow, 1:1 fit.

Experiment [3] deals with T3, Glycosylated HIV-1 gp120 (LAV) envelope glycoprotein (HIV-1 (LAV), UniProt P03377 33-516, limits assumed, glycosylated).
T3 construct: domain: gp120; Bought
As to the kind of experiment: SPR (Biacore 2000), gp120 LAV immobilized on CM5 chip, peptide in flow, 1:1 fit.
Description: Surface plasmon resonance (SPR) experiments were done with a Biacore 2000 system (Biacore, Inc., Piscataway, N.J.). The running buffer (pH 7.4) contained 10 mM HEPES, 150 mM NaCl, 3 mM EDTA and 0.005% polysorbate 20. The immobilized proteins (gp120-LAV and CD4) were dissolved at 20 μg/ml in 10 mM sodium acetate, pH 5.0 and immobilized on a Biacore CM5 sensor chip using the amine coupling method. The chip was activated by mixing 400 mM EDC (N-ethyl-N-(3-dimethylaminopropyl)-carbodiimide hydrochloride) and 100 mM N-hydroxysuccinimide. An immobilization level of 6000 response units (RU) was attained for each bound protein. Residual reactive groups on the chip surface were blocked using 1.0 Methanolamine/HCl, pH 8.5.
In those experiments, biosensor chips containing immobilized gp120 or CD4 were perfused with a 1 μg/ml solution of the peptides, and binding was measured by surface plasmon resonance.

Bridges are numbered along the chain shown (N, C = ends).

B1: Retrocyclin-1 (RC-100) (peptide)
peptide: cyclo(GICRCICGRGICRCICGR)
modifications: disulfide 7-12, 5-14, 3-16
SMILES: CC[C@H](C)[C@@H]1NC(=O)CNC(=O)[C@H](CCCNC(=N)N)NC(=O)CNC(=O)[C@@H]2CSSC[C@H](NC1=O)C(=O)N[C@@H](CCCNC(=N)N)C(=O)N[C@H]1CSSC[C@H](NC(=O)[C@H](CCCNC(=N)N)NC(=O)[C@@H]3CSSC[C@H](NC(=O)[C@H]([C@@H](C)CC)NC1=O)C(=O)NCC(=O)N[C@@H](CCCNC(=N)N)C(=O)NCC(=O)N[C@@H]([C@@H](C)CC)C(=O)N3)C(=O)N[C@@H]([C@@H](C)CC)C(=O)N2
notes: Made by solid phase synthesis, then oxidized and cyclized; also called Retro1
Consider B1, for which the dissociation constant (Kd) in experiment [1] is 29.2 nM; in experiment [2] it was 31 nM; in experiment [3], 35.4 nM.

B2: RC-101 (R9K-Retrocyclin) (peptide)
peptide: cyclo(GICRCICGKGICRCICGR)
modifications: disulfide (positions not given here)
notes: Synthetic cyclic congener of retrocyclin; It was unlabelled in the SPR experiments
For the molecule B2, the dissociation constant Kd in experiment [1] amounted to 20.5 nM; in experiment [2] it was 28.6 nM; in experiment [3], 31.2 nM.
